Literature values in PMC5095918.

Biological target: FANCL RING (Homo sapiens) (UniProt Q9NW38)
Sequence of UniProt Q9NW38 (Q9NW38 304-366): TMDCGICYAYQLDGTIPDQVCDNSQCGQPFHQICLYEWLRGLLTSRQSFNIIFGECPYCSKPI

**Q.** For UBE2T (from UniProt Q9NPD8), which Kd is on record?
**A.** 450 nM
